This passage reports Kd results from PMC4575469.

The data set relates to TetR. Kind of data set: SPR. The conditions noted are these: streptavidin surface, promoters at 30-50 RU, TetR 4-62 nM, regeneration with 1 M NaCl and 1 M MgCl2, running buffer, pH and temperature not given in the ….
What is called Kd is the constant that tells how readily two partners part at equilibrium. The low end stands for higher affinity, the high end for lower affinity. In the case of “CGCGCGCCTTTCTGCGTTTATATACTAGAGTCCCTATCAGTGATAGAGATTGACATCCCTATCAGTGATAGATATAATGGGCACTACTAGAGTAGTGGAGGTTACTAGATGGTGAGCAAGGGCGAGGAGCTGTTCACCGGGGTGGTGCCCATCCTGCGCG (double strand) [L11 promoter]”, the Kd amounted to 6 nM. In other words, the single-digit nanomolar range. In turn, “CGCGCGCCTTTCTGCGTTTATATACTAGAGTCCCTATCAGTGATAGAGATTGACATCCCTATCAGTGATAGATATAATGTGCACTACTAGAGTAGTGGAGGTTACTAGATGGTGAGCAAGGGCGAGGAGCTGTTCACCGGGGTGGTGCCCATCCTGCGCG (double strand) [L10 promoter]” had a Kd of 5 nM. Regarding “CGCGCGCCTTTCTGCGTTTATATACTAGAGTCCCTATCAGTGATAGAGATTGACATCCCTATCAGTGATAGATATAATGAGCACTACTAGAGTAGTGGAGGTTACTAGATGGTGAGCAAGGGCGAGGAGCTGTTCACCGGGGTGGTGCCCATCCTGCGCG (double strand) [L12 promoter]”, the dissociation constant (Kd) turned out to be 8 nM. The sequence “CGCGCGCCTTTCTGCGTTTATATACTAGAGTCCCTATCAGTGATAGAGATTGACATCCCTATCAGTGATAGATATAATGCGCACTACTAGAGTAGTGGAGGTTACTAGATGGTGAGCAAGGGCGAGGAGCTGTTCACCGGGGTGGTGCCCATCCTGCGCG (double strand) [L09 promoter]” showed a Kd of 6 nM. The Kd values of the last two sequences are within 1.5-fold of each other.
